# According to ChEMBL document CHEMBL1136774, “Pharmacophore and quantitative structure-activity relationship modeling: complementary approaches for the rationalization and prediction of UDP-glucuronosyltransferase 1A4 substrate selectivity” (J Med Chem, 2003):
# B1: UDP-glucuronosyltransferase 1A4 (Homo sapiens) (protein)
# chain: MARGLQVPLPRLATGLLLLLSVQPWAESGKVLVVPTDGSPWLSMREALRELHARGHQAVVLTPEVNMHIKEEKFFTLTAYAVPWTQKEFDRVTLGYTQGFFETEHLLKRYSRSMAIMNNVSLALHRCCVELLHNEALIRHLNATSFDVVLTDPVNLCGAVLAKYLSIPAVFFWRYIPCDLDFKGTQCPNPSSYIPKLLTTNSDHMTFLQRVKNMLYPLALSYICHTFSAPYASLASELFQREVSVVDLVSYASVWLFRGDFVMDYPRPIMPNMVFIGGINCANGKPLSQEFEAYINASGEHGIVVFSLGSMVSEIPEKKAMAIADALGKIPQTVLWRYTGTRPSNLANNTILVKWLPQNDLLGHPMTRAFITHAGSHGVYESICNGVPMVMMPLFGDQMDNAKRMETKGAGVTLNVLEMTSEDLENALKAVINDKSYKENIMRLSSLHKDRPVEPLDLAVFWVEFVMRHKGAPHLRPAAHDLTWYQYHSLDVIGFLLAVVLTVAFITFKCCAYGYRKCLGKKGRVKKAHKSKTH
# What was measured:
# [1] = molecular target: UGT1A4 (UDP-glucuronosyltransferase 1A4) (Homo sapiens, UniProt P22310); experiment: (§1) Binding affinity against human UDP Glucuronosyltransferase 1A4 (UGT1A4); details: read-out: Km,app
# [2] = substrate: CC1CC[C@H](C(C)C)[C@@H](O)C1; experiment: as §1
# [3] = substrate: CN(C)CCC=C1c2ccccc2CCc2ccccc21; experiment: as §1
# [4] = substrate: CC1(C)[C@H]2CC[C@]1(C)[C@H](O)C2; experiment: as §1
# [5] = substrate: Cc1ccc(C(C)C)cc1O; experiment: as §1
# [6] = substrate: CN1CCC(=C2c3ccccc3CC(=O)c3sccc32)CC1; experiment: as §1
# [7] = substrate: C[C@@H]1CC[C@@]2(OC1)O[C@H]1C[C@H]3[C@@H]4CC[C@@]5(C)C[C@@H](O)CC[C@]5(C)[C@H]4CC(=O)[C@]3(C)[C@H]1[C@@H]2C; experiment: as §1
# [8] = substrate: [H][C@@]12CC[C@]3([H])[C@]([H])(CC[C@]4(C)C(C)(O)CC[C@@]34[H])[C@@]1(C)CCC(O)C2; experiment: as §1
# [9] = substrate: O=[N+]([O-])c1ccc(O)cc1; experiment: as §1
# [10] = substrate: Nc1ccc(-c2ccccc2)cc1; experiment: as §1
# [11] = substrate: c1ccc(Nc2ccccc2)cc1; experiment: as §1
# [12] = substrate: CN1CCN(C2=Nc3cc(Cl)ccc3Nc3ccccc32)CC1; experiment: as §1
# [13] = substrate: Clc1ccc2c(c1)N=C(N1CCNCC1)c1ccccc1N2; experiment: as §1
# [14] = substrate: [H][C@@]12CC[C@]3([H])[C@]([H])(CC[C@@]4(C)[C@@]3([H])CC[C@]4([H])[C@H](C)O)[C@@]1(C)CC[C@H](O)C2; experiment: as §1
# [15] = substrate: CN1CCC(=C2c3ccccc3C=Cc3ccccc32)CC1; experiment: as §1
# [16] = substrate: CCOC(=O)Nc1ccc(NCc2ccc(F)cc2)cc1N; experiment: as §1
# [17] = substrate: C=CCc1ccc(O)c(OC)c1; experiment: as §1
# [18] = substrate: C[C@@H]1CC[C@@]2(OC1)O[C@H]1C[C@H]3[C@@H]4CC=C5C[C@@H](O)CC[C@]5(C)[C@H]4CC[C@]3(C)[C@H]1[C@@H]2C; experiment: as §1
# [19] = substrate: C[C@@H]1CC[C@@]2(OC1)O[C@H]1C[C@H]3[C@@H]4CC[C@H]5C[C@@H](O)CC[C@]5(C)[C@H]4CC[C@]3(C)[C@H]1[C@@H]2C; experiment: as §1
# [20] = substrate: CN(C)CCCN1c2ccccc2CCc2ccccc21; experiment: as §1
# [21] = substrate: Nc1ccc(-c2ccc(N)cc2)cc1; experiment: as §1
# [22] = substrate: Nc1ccccc1-c1ccccc1; experiment: as §1
# [23] = substrate: CN1CCN(C2=Nc3ccccc3Oc3ccc(Cl)cc32)CC1; experiment: as §1
# [24] = substrate: O=c1c(-c2ccc(O)cc2)coc2cc(O)ccc12; experiment: as §1
molecule,measurement,setting,value
CN(C)CCCN1c2ccccc2Sc2ccc(Cl)cc21 [CHLORPROMAZINE],Km,[1],93 µM
B1,Km,[2],470 µM
same,Km,[3],60 µM
same,Km,[4],1100 µM
same,Km,[5],1500 µM
same,Km,[6],70 µM
same,Km,[7],18 µM
same,Km,[8],16 µM
same,Km,[9],11600 µM
same,Km,[10],66 µM
same,Km,[11],240 µM
same,Km,[12],62 µM
same,Km,[13],56 µM
same,Km,[14],7.3 µM
same,Km,[15],150 µM
same,Km,[16],322 µM
same,Km,[17],1570 µM
same,Km,[18],13 µM
same,Km,[19],7 µM
same,Km,[20],310 µM
same,Km,[21],460 µM
same,Km,[22],47 µM
same,Km,[23],27 µM
same,Km,[24],400 µM
